Assay results: paper PMC7865891

How the values were obtained:
[1] = system: β-conglutin (lupin (species not stated)); assay: MST; details: 0.05% Tween-20, 25 C, Hill EC50 fit, PBS (10 mM phosphate, 135 mM NaCl, 2.7 mM KCl, pH 7.4) + 1.5 mM MgCl2, MST +0.05% Tween-20, 25 C (20 mM KCl for TT derivatives), BLI +0.1% Tween-20, 30 C, SPR …
[2] = system: β-conglutin (lupin (species not stated)); assay: SPR; details: 1:1 kinetic model, protein immobilized, PBS (10 mM phosphate, 135 mM NaCl, 2.7 mM KCl, pH 7.4) + 1.5 mM MgCl2, MST +0.05% Tween-20, 25 C (20 mM KCl for TT derivatives), BLI +0.1% Tween-20, 30 C
[3] = system: β-conglutin (lupin (species not stated)); assay: BLI; details: 2:1 heterogeneous model, 30 C, 0.1% Tween-20, 5' TEG spacer, PBS (10 mM phosphate, 135 mM NaCl, 2.7 mM KCl, pH 7.4) + 1.5 mM MgCl2, MST +0.05% Tween-20, 25 C (20 mM KCl for TT derivatives), BLI +0.1% Tween-20, 30 C, SPR …

| Sequence | Kd [2] | Kd ([1]; 20 mM KCl) | also measured |
| --- | --- | --- | --- |
| GGTGGGGGTGG [Cy5-11-mer] | – | – | Kd ([1]; binding buffer): 1.05 nM |
| GGTGGGGGTGGTT [11-mer-TT] | 84.9 nM | – | – |
| GGTGGGGGTGGTT [Cy5-11-mer-TT] | – | 2.59 nM | – |
| TTGGTGGGGGTGG [Cy5-TT-11-mer] | – | 1.88 nM | – |
| TTGGTGGGGGTGG [TT-11-mer] | 7.28 nM | – | – |
| TTGGTGGGGGTGGTT [Cy5-TT-11-mer-TT] | – | 2.71 nM | – |
| TTGGTGGGGGTGGTT [TT-11-mer-TT] | 53.7 nM | – | – |
| TTTTTTTTTTTTTTTGGTGGGGGTGG [Biotin-TEG-T15-11-mer] | – | – | Kd ([3]; first KD): 6.95 nM; Kd ([3]; second KD): 23.3 nM |
